Data reported in US20150104459A1.

Legend:
[1] = target: 23mer synthetic M2e peptide of A/Fort Worth/1/50 (influenza A virus A/Fort Worth/1/50 (H1N1)); experiment: ELISA, 23mer M2e peptide coated at 1 ug/ml
[2] = target: M2 protein of influenza A/Wisconsin/67/05 (H3N2), on inactivated whole virions (influenza A virus A/Wisconsin/67/05 (H3N2)); experiment: ELISA, positive control antibody on inactivated whole virions

Sequence of TCN-032 (8I10) (antibody) (VH): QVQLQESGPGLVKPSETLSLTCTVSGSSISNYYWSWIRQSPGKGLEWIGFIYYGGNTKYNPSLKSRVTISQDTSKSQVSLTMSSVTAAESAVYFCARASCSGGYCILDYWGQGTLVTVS
Sequence of TCN-032 (8I10) (antibody) (VL): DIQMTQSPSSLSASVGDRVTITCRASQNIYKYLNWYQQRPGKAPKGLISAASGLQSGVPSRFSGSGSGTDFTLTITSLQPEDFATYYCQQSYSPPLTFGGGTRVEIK

Substance: chimeric mouse V-region/human IgG1 kappa 14C2 antibody
- EC50 [1]: 0.01 µg/mL

Substance: TCN-032 (8I10) (antibody)
- ELISA virus binding (OD450) [2]: 3.62 OD450
